These results are taken from doi:10.1101/2021.05.25.445634.

For the test, the target named is TnsC of the type V-K CRISPR-associated transposase system from S. hofmanni (ShCAST) (S. hofmanni). Kind of test: cryo-EM structure.

As a reminder, the stoichiometry N is a count of units in the complex or per binding partner. Take “TnsC of the type V-K CRISPR-associated transposase system from S. hofmanni (ShCAST) (natural protein)”: the stoichiometry N stood at 12 subunits.
